Laboratory results published in US20260184748A1 (University of Pennsylvania, published 2026).
Where no end group is shown, it is not given here.

Tests used:
Experiment in all cases: cell-based or functional assay
[1] = target: GCGR (UniProt P47871 26-477)
[2] = target: GPR92 (UniProt Q9H1C0 1-372)
[3] = target: T1, MRGPRX2 (UniProt Q96LB1 1-330)
T1 sequence (looked up): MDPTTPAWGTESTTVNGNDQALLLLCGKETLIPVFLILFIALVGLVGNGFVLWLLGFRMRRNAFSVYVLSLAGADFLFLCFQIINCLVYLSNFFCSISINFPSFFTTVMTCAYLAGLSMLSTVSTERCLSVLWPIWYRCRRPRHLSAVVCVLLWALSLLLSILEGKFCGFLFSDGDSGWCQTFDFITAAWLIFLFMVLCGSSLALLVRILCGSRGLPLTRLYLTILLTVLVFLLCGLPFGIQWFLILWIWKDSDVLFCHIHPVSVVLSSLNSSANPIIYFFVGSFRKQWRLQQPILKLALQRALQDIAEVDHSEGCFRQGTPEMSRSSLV

[4] = target: T2, OXTR (UniProt P30559 1-389)
T2 sequence (looked up): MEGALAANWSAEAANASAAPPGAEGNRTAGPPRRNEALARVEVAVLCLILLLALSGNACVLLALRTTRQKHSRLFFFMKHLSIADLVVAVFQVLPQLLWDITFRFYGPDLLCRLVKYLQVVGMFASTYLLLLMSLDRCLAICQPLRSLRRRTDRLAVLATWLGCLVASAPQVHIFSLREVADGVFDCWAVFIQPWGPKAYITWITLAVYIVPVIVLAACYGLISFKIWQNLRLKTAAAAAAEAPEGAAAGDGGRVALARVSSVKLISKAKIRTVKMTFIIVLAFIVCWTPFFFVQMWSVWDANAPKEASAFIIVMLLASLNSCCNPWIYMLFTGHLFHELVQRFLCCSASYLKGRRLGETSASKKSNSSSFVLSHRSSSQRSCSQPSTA

[5] = target: T3, CCR4 (UniProt P51679 1-360)
T3 sequence (looked up): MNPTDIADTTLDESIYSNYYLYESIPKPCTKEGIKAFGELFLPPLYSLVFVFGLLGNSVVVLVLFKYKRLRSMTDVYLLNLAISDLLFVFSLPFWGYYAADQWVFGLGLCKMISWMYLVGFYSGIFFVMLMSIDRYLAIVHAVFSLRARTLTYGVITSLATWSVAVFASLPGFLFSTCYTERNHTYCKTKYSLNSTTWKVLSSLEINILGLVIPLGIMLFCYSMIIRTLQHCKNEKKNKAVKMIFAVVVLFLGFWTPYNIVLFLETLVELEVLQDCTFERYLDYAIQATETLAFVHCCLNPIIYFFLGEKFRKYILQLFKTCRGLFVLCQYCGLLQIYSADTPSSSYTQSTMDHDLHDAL

[6] = target: TSHR(L) (UniProt P16473 21-764, limits assumed)
[7] = target: T4, GPR119 (UniProt Q8TDV5 1-335)
T4 sequence (looked up): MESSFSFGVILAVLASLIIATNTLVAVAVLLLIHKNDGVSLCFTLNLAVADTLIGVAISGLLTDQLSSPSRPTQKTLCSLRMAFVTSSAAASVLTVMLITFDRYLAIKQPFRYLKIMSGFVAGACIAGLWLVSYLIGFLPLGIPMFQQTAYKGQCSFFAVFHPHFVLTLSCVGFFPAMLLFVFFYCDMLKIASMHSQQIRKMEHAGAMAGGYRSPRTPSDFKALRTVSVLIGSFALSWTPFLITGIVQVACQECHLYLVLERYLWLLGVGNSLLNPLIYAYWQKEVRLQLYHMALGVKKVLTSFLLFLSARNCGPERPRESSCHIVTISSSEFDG

[8] = target: T5, NPSR1B (UniProt Q6W5P4-4 1-377, limits assumed)
T5 sequence (looked up): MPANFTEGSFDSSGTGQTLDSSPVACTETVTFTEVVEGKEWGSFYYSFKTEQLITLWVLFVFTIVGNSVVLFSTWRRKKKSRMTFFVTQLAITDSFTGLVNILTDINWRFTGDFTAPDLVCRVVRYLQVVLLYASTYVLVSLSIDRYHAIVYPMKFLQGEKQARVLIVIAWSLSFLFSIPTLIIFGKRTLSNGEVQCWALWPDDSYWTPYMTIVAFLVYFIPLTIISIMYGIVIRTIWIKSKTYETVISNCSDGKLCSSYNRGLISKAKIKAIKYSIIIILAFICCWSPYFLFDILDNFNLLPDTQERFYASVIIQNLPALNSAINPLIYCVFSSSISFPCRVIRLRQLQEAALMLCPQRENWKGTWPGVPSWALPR

[9] = target: PTGFR (UniProt P43088 1-359)
[10] = target: SSTR5 (UniProt P35346 1-364)
[11] = target: GPR35 (UniProt Q9HC97 1-309, limits assumed)
[12] = target: T6, CXCR2 (UniProt P25025 1-360)
T6 sequence (looked up): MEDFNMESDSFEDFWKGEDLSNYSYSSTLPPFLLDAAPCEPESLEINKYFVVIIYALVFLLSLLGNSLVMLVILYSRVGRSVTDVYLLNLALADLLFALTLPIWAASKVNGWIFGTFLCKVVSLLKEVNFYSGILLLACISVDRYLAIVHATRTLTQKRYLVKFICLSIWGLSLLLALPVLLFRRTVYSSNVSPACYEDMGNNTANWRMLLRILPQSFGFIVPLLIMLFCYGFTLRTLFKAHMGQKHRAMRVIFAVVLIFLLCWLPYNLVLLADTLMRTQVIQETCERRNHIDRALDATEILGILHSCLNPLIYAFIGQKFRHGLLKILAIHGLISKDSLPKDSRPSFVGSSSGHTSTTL

Sequence of GPR92 (Q9H1C0 whole entry): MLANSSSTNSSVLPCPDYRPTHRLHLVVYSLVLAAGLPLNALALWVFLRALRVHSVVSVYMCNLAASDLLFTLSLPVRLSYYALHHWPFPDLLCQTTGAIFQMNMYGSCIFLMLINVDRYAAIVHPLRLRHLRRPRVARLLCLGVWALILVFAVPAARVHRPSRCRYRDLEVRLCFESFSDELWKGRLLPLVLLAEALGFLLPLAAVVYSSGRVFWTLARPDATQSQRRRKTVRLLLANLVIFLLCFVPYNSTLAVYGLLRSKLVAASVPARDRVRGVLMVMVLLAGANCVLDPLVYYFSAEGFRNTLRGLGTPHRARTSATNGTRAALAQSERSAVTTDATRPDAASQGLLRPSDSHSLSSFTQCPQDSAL
Sequence of SSTR5 (P35346 whole entry): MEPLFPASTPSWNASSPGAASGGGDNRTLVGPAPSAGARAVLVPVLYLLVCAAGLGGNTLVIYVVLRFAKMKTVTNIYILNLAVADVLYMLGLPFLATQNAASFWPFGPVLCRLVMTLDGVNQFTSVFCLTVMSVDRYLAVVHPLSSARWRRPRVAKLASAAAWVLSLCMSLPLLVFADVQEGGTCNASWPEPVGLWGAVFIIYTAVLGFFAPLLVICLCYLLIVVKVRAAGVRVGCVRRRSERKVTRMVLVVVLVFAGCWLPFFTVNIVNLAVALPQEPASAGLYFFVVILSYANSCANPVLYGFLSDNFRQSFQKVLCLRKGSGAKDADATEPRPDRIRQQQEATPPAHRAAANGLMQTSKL
Sequence of GPR35 (Q9HC97 whole entry): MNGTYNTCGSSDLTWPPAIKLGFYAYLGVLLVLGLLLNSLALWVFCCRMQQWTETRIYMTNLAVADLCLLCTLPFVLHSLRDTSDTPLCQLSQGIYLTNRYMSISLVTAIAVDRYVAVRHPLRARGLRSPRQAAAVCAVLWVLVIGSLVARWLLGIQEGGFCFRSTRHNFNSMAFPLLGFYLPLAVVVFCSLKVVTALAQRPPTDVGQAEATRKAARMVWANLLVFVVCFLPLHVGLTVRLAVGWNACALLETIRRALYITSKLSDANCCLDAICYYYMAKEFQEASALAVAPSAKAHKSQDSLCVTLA
Sequence of PTGFR (P43088 whole entry): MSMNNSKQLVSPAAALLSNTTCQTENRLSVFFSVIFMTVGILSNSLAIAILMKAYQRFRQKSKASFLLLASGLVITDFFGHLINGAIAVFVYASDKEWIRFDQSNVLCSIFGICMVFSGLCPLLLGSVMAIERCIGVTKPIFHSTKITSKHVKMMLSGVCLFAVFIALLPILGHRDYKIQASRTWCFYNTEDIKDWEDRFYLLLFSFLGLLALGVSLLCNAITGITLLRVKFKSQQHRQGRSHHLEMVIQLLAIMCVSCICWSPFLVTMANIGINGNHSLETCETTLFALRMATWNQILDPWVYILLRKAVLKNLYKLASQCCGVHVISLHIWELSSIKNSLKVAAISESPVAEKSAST

Binder: QATVGDVNTDRPGLLDLK (also: synthesised on Rink amide resin, C-terminal amide not given here outright) [octadecaneuropeptide (ODN)]
- % Activity, arrestin, antagonist mode, 2.5 uM [1]: -17.2%
- % Activity, arrestin, antagonist mode, 2.5 uM [2]: 10.6%
- % Activity, arrestin, antagonist mode, 2.5 uM [3]: -23.5%
- % Activity, arrestin, antagonist mode, 2.5 uM [4]: 1.3%
- % Activity, arrestin, antagonist mode, 2.5 uM [5]: 1.3%
- % Activity, arrestin, antagonist mode, 2.5 uM [6]: -19.1%
- % Activity, arrestin, antagonist mode, 2.5 uM [7]: -1%
- % Activity, arrestin, antagonist mode, 2.5 uM [8]: 15.5%
- % Activity, arrestin, antagonist mode, 2.5 uM [9]: -8.4%
- % Activity, arrestin, antagonist mode, 2.5 uM [10]: -17.3%
- % Activity, arrestin, antagonist mode, 2.5 uM [11]: -12.2%
- % Activity, arrestin, antagonist mode, 2.5 uM [12]: -9.8%
